Measured values reported in paper PMC5570905, “Phytochrome-interacting factors directly suppress MIR156 expression to enhance shade-avoidance syndrome in Arabidopsis”.

Target: T1, GST-PIF5 bHLH domain (Arabidopsis thaliana, UniProt Q84LH8 259-310)
T1 sequence: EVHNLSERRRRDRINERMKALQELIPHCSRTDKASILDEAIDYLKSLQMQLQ
Experiment: EMSA; Beyotime EMSA kit binding buffer (composition not stated), 20 min, room temperature, 5% native PAGE; 50x and 100x unlabeled competitor
Conditions: protein: recombinant, tags: N-terminal GST (pGEX-4T-1), chain copies: 2, label: biotin

B1: MIR156E mutant probe (E03/E04) (dsDNA)
DNA 1: CATATTCGTTCCCACTGACCTTCTCCTCAGGGGCTGACTGACCTATTCCCACGCCGAAAG
DNA 2: CTTTCGGCGTGGGAATAGGTCAGTCAGCCCCTGAGGAGAAGGTCAGTGGGAACGAATATG
binding result (blunt): no binding

B2: MIR156F probe (E05/E06) (dsDNA)
DNA 1: AACAAACCCCATTACGACACGTGACAGGCTGGGCATTCTCCACATGCTTTCTTGCCGAAA
DNA 2: TTTCGGCAAGAAAGCATGTGGAGAATGCCCAGCCTGTCACGTGTCGTAATGGGGTTTGTT
binding result (blunt): binds

B3: MIR156F mutant probe (E07/E08) (dsDNA)
DNA 1: AACAAACCCCATTACGATGACCTACAGGCTGGGCATTCTCCACATGCTTTCTTGCCGAAA
DNA 2: TTTCGGCAAGAAAGCATGTGGAGAATGCCCAGCCTGTTGACCTTCGTAATGGGGTTTGTT
binding result (60 nt strands): no binding

B4: MIR156E probe (E01/E02) (dsDNA)
DNA 1: CATATTCGTTCCCACCACGTGTCTCCTCAGGGGCTGACCACGTGATTCCCACGCCGAAAG
DNA 2: CTTTCGGCGTGGGAATCACGTGGTCAGCCCCTGAGGAGACACGTGGTGGGAACGAATATG
binding result (blunt): binds
